Measured values published in patent publication US7129053 (DAKOCYTOMATION DENMARK A S, dated 2006).

Target: T1, H. pylori catalase (Helicobacter pylori, UniProt P77872 1-505)
T1 construct: mature; also called katalase; immunizing antigen
T1 sequence (looked up): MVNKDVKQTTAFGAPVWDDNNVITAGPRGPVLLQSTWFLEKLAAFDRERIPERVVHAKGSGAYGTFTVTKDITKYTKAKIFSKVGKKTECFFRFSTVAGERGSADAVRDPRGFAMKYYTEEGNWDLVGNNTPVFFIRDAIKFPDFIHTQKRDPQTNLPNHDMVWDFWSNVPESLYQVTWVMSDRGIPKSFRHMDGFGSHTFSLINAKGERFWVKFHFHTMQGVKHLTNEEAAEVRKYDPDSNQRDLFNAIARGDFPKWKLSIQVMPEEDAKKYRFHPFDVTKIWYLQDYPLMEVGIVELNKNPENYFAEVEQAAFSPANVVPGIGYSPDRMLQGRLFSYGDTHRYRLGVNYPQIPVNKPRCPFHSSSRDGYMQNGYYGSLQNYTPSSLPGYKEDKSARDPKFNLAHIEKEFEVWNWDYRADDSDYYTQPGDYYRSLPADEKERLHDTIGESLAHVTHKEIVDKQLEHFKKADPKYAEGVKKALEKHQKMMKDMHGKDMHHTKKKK
Assay: SPR (BIAcore), catalase amine-coupled on CM5 chip, antibody 20-670 nM in flow
Protocol: Catalase was Immobilized through amine coupling on the dextrane matrix of the BIAcore CM5 sensor chip. For the activation of the dextrane matrix 45 μl of a 1:1-mixture of 0.05 M N-hydroxysuccinimide (NHS) and 0.2 M 1-ethyl-3-3-dimethylaminopropyl)carbodiimide (EDC) solution was conducted over the sensor chip at a flow rate of 5 μl/min. Then, the catalase (35 μl; 50 μg/ml in 10 mM sodium acetate, pH 5.0) were bound to the dextrane matrix. The remaining NHS ester was deactivated with 1 M ethanolamine (35 μl). Catalase that was not covalently bound to the dextrane matrix was removed by regenerating the sensor chip with HCl (10 mM; 15 μl).
By adding the catalase-specific monoclonal antibodies, these were made react with immobilized catalase and the mass attachment to the detector was measured. Antibody solutions in different concentrations ranging from 20 to 670 nM were used. They were injected via the catalase immobilized on the sensor chip at a flow rate of 25 μl/min each.
The values for the rate constants of the adsorption ($kon$) and desorption ($koff$) of the antibody could be calculated (BIAevaluation software 3.0).

Binder	Kd	koff	kon
monoclonal antibody HP25.2m/2H10 (antibody, IgG2a, V domains shown, also called HP25.2m/2H10 (K10); HP25.2m/2Hallin (K10)) VH: VQLLEQPGAELAKPGASVKMSCKASGYTFTNYWIHWVKQRPGQGLKWIGYINPATGSTSYNQDFQDRATLTADKSSTTAYMQLTSLTSEDSSVYYCAREGYDGFDSWGQGTTLTVSS VL: ELVLTQSPAIMSASPGEKVTMTCSASSSVNYMYWYQQKSGTSPKRWIYDTSKLASGVPARFSGSGSGTSYSLTLSSMEAEDAATYYCQQWSSNPYTFGGGTKLEIK	0.271 nM	3.9e-05 s⁻¹	144000 M⁻¹ s⁻¹
monoclonal antibody HP25.6m/1B5 (antibody, IgG1, V domains shown, also called HP25.6m1/1B5) VH: EVQLQQSGAELVKPGASVKLSCTSSGFNIKDTYVHWMKQRPEQGLEWIGKIDPANGKTKYDPIFQAKATMTADASSNTAYLQLSSLTSEDTAVYYCALPIYYASSWFAYWGQGTLVTVSA VL: DIVMTQSHKFMSTSVGDRVSITCKASQDVGTSVAWYQQKPGHSPKLLIYWTSTRHTGVPDRFTGSGSGTDFILTISNVQSEDLADYFCQQYSSSPTFGGGAKVEIK	0.681 nM	3.86e-05 s⁻¹	56700 M⁻¹ s⁻¹
